{"source": "patent US20170081409A1", "about": "(AGENUS, published 2017)", "binders": {"B1": {"name": "AGEN2046w (antibody, human IgG1, kappa, V domains shown)", "VH": "QVQLVESGGGVVQPGRSLRLSCAASGFTFSSYGMHWVRQAPGKGLEWVAVIWYDGSNKYYADSVKGRFTISRDNSKNTLYLQMNSLRAEDTAVYYCASNVDYWGQGTLVTVSS", "VL": "not shown"}}, "target": "T1, human PD-1 expressed by activated (SEA-stimulated) primary human CD4+ T cells (human, UniProt Q15116 25-288)", "T1 construct": "whole, on cells; also called programmed cell death protein 1", "T1 sequence (Q15116 25-288)": "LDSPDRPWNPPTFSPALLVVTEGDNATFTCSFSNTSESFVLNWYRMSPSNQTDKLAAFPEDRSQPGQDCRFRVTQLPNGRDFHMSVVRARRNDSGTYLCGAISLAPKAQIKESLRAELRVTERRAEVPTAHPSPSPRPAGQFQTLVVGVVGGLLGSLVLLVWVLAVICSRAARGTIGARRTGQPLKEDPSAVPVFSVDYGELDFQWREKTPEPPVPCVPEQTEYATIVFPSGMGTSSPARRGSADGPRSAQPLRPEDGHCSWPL", "test": "flow cytometry on SEA-stimulated human PBMC, CD4+ gate", "method": "The anti-PD-1 antibodies AGEN2046w, AGEN2047w, and AGEN2034w were examined for binding to activated peripheral blood mononuclear cells (PBMCs) by flow cytometry. Cryopreserved human PBMCs prepared from unpurified buffy coats (Research Blood Components, Catalog number (Cat#) 002) or cryopreserved cynomolgus PBMCs (Worldwide Primates Inc., customer order) were plated at 10⁵ cells/well in RPMI1640 medium supplemented with Normocin™ (InvivoGen, Cat#ant-nr-1) and 10% heat-inactivated FBS (Gibco, Cat#16140063) in 96-well NUNCLON delta surface plates (NUNC™). The cells were cultured in the presence of 100 ng/ml of Staphylococcus Enterotoxin A (SEA; for human PBMCs) (Toxin Technologies, Cat#at101red) or Staphylococcus Enterotoxin B (SEB; for cynomolgus PBMCs) (Toxin Technology, Cat#bt202red) for 5 days at 37° C., 5% CO₂, and 97% humidity. […] The cells were washed twice with sample buffer and then resuspended in sample buffer and analyzed with a FACS Fortessa cytometer (Becton Dickinson). CD4+ T cells were gated and the mean fluorescence intensity (MFI) was recorded.\nThe binding of AGEN2034w to activated primary human T cells was measured again in a similar assay. […] Cells were analyzed with a FACS Fortessa cytometer (Becton Dickinson). CD4+ T cells were gated and the mean fluorescence intensity (MFI) of AGEN2034w-positive cells was determined.", "data": [{"binder": "B1", "values": [{"measurement": "binding result", "result": "binds"}]}]}
